T1: FruA-His6 (Myxococcus xanthus) (UniProt Q1D7Q3)
T1 sequence: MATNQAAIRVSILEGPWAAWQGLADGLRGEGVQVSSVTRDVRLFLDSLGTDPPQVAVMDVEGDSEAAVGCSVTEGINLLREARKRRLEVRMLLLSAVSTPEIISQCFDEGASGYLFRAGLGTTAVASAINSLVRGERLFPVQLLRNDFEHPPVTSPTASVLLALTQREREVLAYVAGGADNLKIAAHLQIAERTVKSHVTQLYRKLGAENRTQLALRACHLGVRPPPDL

T2: His10-MrpC2 (Myxococcus xanthus, UniProt Q1D244 26-248)
T2 sequence: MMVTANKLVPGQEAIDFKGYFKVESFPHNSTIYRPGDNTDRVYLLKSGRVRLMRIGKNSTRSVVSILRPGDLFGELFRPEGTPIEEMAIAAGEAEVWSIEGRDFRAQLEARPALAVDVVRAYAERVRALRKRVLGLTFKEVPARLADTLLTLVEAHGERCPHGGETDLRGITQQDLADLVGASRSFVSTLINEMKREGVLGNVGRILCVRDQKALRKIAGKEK

B1: MXAN_0524 probe A (dsDNA)
DNA 1: CCGTCCCAACAACTGATACACAGTCAACGTTTCTCCATCC
DNA 2: GGATGGAGAAACGTTGACTGTGTATCAGTTGTTGGGACGG
B2: MXAN_0524 probe B (dsDNA)
DNA 1: CACAGTCAACGTTTCTCCATCCAGCCCACCTGTCCTCCAC
DNA 2: GTGGAGGACAGGTGGGCTGGATGGAGAAACGTTGACTGTG
B3: MXAN_0524 probe C (dsDNA)
DNA 1: CATCCAGCCCACCTGTCCTCCACTGAACACGTACTGGCAC
DNA 2: GTGCCAGTACGTGTTCAGTGGAGGACAGGTGGGCTGGATG

The molecules below were run against T1, FruA-His6 (Myxococcus xanthus) (assay: EMSA). Conditions: 2 nM 32P-labeled DNA, 25 C, 15 min, buffer as in cited ref 127 (not given).
“CTCGTTTACGAACTCGTCTGGTCCAAGTACCTCGGGAATGTCCTGGGGAACAGCGGCCAGGCGCATGCCGTGGTGCTCGCCACGTTCATGGGAGGGCAAGCGCTGGGCGCATTTGTCTTCGGGCGGACAGCCGACCGGGCAAAGAACCCCCTGGCCCTTTACGGCCTGCTGGAGCTGGGCGTGGGCCTGTACGCGCTGGTCTTC (double strand) [mrpA PCR]” was tested, and the binding was “binds more weakly”.
With “GGATTTGCCTTTGCACCTCCAGAACCACCAGTGGGTGAAACAATGTCAACGGGAGTCCTTCGCCACGGCCTTGATTGTCCCTTAGCAAACACAGTGAACCGCACAGCGACAAGGCAGGAATTCGCCCACGCTGGACTCACGGCACGTCGGAAGCATCTCTTGGGAATCAAGAATTGAGTGAGGTCCATCGCCCTGCAATCGATGGCAAAGAG (double strand) [pkn8 PCR]” the binding was “no binding”.
In the case of “CCAGGGAACGTAGAAGTCTGGCAGTTCGAATGGCTGCTTGTTTTTCGCCGTACTCATGGACGCCCCTCGTTGAACTCAGGGGGGCGTTATAGTTAGGCGCTGAACACTTATCCAAGTGTTTCTTGCATAAAAGATTCTCTGGAGAAGTCGCGATTTGCCTGCTGGCGCACGGATTTAGCTCCATCCGTGCGCCGTATTGCTC (double strand) [MXAN_6247 PCR]”, the binding is reported as “binds”.
“GTGGGCATCCACGAAGCGCGCCCCGGACTGGTGCGCCCCCTGCTGTCGTGCACGCGGGAGGAGGTGGTGGCCTTCCTGGCGGAGCAGGGTGTCGCCTATGTGACAGACCCGATGAACACCGACCCTGTCCACTTCCGGACGCGCGTTCGCCTTGGAGTGCTACCCGCCCTGTCGCGCGCCGCTGGCTTCGCGGTGGAGG (double strand) [MXAN_4360 PCR]” was tested, and the binding was “binds more weakly”.
In the case of “GTACCAACTCGCGCACGTCGGGTGCGGGCAGTCCGTAGCGCTGGCCGTTCAGGGTGAACAGCAGCACCTCCGTGGGTGCGGGGGTCATGTCCTGGGACATAAGACGTGGGCGTGGCCACTGTCGAACATTGATGTCGGCCCGCGGTCGCGGTGTCCACCAGTCCTCAGTGGAGGCAGGAGGAGGGGCCCATGGTTCGGGGGGAACACGACAGGTGCTCGCTGTGC (double strand) [cheW6a PCR]”, the binding is reported as “binds”.
For “GATTAGCACTACGCATGCCAACCCAGGTGCGCACTCCAAGCCCCCCAATTCTCAAGGCTTGGAACAATCCCCTCGGCGAGGATGGGTCCAGGGCTGACAAAATTCGGCAGTGACGCTGACGATAACTGTCGATCAGCCTACGCATCCGAAGCGCTCCCGGGCTCCAAGTCATCCGTCAGCCCATGCTTGGCCAACCGGTAGCGGAATGAACGGAACGAAAG (double strand) [pilA PCR]”, the binding was “no binding”.
With “GTCTTCCTTGTTGATGAGCCCCGGAGGGGCCATCGCGGTGGGCATAGCGCTCGCAGCGGAGCCCTTCTTCTTCTCATCGGACATGAAATTCAGCCTTTTCTCTTCGACAACCAGTGAACATTTCCAGGTTTTCTGCGGCGGATGAACCAACGTAACAACCAAAACGGACATGGCAAACGCAGTGTGCGTTTTTCCGCCCCCCGTCACCTCTCCAGGGTTCCTCGGAAGTC (double strand) [bsgA PCR]” the binding was “binds”.
In the case of “CAAGGTGATGATGTGCGTCGAGGCTATCGGCCATGTGCGGGAGCGTCAATGTTCGGACCGGGCGGAATTCCGGCTGCCCGGGGAGCGGGCAAGCGCCGTCACACAGCCGACGTTTCCGTCACTGAGGGTACGTCGGGTACGTCACTGGCTCGACGGAGATGGGCGGCCAGGAGTGCGGCGTGCGCGGCGCGGGCGGGAGCGAATACAGCGGCTCG (double strand) [frzS PCR]”, the binding is reported as “no binding”.
In the case of “CGAGCTCCTGTGAACCGAAGTCATGCTGCTGGTAGGAGCCCGCTGGGTCTGCCCAGACCTCGCCAATGAGGCGCTGGTCCATTAATTGCTCAACGCAACAACTTGCGAAGCAGTCTGTCGGCTACTTGACCGTGCTTGCCAGTGAATGAGAAGTGACGCCTGCGTGCTGACCGTAATGGGACAGGCGGGGACCATGTATATGAGGTGGAAGAAGC (double strand) [MXAN_5802 PCR]”, the binding is reported as “no binding”.
For “GGCGAACGGGACTTTCCTTCTCCAAGGTTCGTGCCAGCGGGAATTGAAATGCCGCCGGGACAACACCTCCTGAAATGCCGGGTACTTAGCGCTACAGGCCCGCACCAGAGCCCGTTCTGTGTCCAAAACCTGAAACAGAACGTTCAAACAGTCTGATCAATTTGAACGAAACGTTCAAACCGGGGGCATGAGTGTCGGAGCAG (double strand) [mrpC upstream PCR]”, the binding was “no binding”.

These molecules were tested against T2, His10-MrpC2 (assay: EMSA; 1 uM protein; EMSA, 2 nM 32P-labeled DNA, 25 C, 15 min; buffer as in cited ref 127 (not given)). Conditions: protein: recombinant; tags: N-terminal His10; chain copies: 2; label: 32P; blunt.
B1: binds.
B2: no binding.
B3: binds.

Source: PMC4320627, “Transcription factor MrpC binds to promoter regions of hundreds of developmentally-regulated genes in Myxococcus xanthus”
